From the supplement of paper PMC10567573

B1: FANCE (parent)
chain: AQVLMLGQILELPWKEETFLVLQS
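Note: lentivirally expressed fusions sorted by FACS into six bins by GFP to DsRed ratio, PSI derived from sequencing read proportions per bin multiplied by bin number.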

Variants of: B1
Experiment: protein stability index of a GFP-peptide fusion (GPS, HEK-293T) (PSI 1-6); higher = more stable
Conditions: c terminus: a fixed tail appended
Variant F19D has a protein stability index of 2.53.
F19S showed a protein stability index of 1.75.
F19C showed a protein stability index of 1.54.
With F19A the protein stability index was 1.77.
In the case of F19P, the protein stability index is reported as 1.55.
Variant F19H has a protein stability index of 3.46.
With F19K the protein stability index was 1.53.
In the case of F19N, the protein stability index is reported as 2.02.
F19W gave a protein stability index of 1.88.
Work on F19T yielded a protein stability index of 1.56.
F19V gave a protein stability index of 2.48.
For F19Q, the protein stability index was 1.51.
Variant F19G has a protein stability index of 2.11.
For F19E, the protein stability index was 2.25.
Variant F19R has a protein stability index of 2.1.
With F19Y the protein stability index was 2.24.
Variant F19M has a protein stability index of 2.68.
Variant L20I has a protein stability index of 2.31.
With L20R the protein stability index was 2.61.
L20Y showed a protein stability index of 3.73.
In the case of L20A, the protein stability index is reported as 3.76.
Variant L20D has a protein stability index of 1.6.
Variant L20S has a protein stability index of 2.3.
L20N gave a protein stability index of 2.56.
L20C showed a protein stability index of 1.48.
L20M gave a protein stability index of 1.73.
For L20P, the protein stability index was 1.94.
L20H gave a protein stability index of 2.03.
Variant L20V has a protein stability index of 3.
In the case of L20E, the protein stability index is reported as 2.24.
In the case of L20K, the protein stability index is reported as 1.91.
With L20T the protein stability index was 1.76.
Variant L20Q has a protein stability index of 2.98.
With L20W the protein stability index was 2.87.
Work on L20G yielded a protein stability index of 1.81.
In the case of E17Q, the protein stability index is reported as 3.48.
E17N gave a protein stability index of 4.33.
Variant E17L has a protein stability index of 2.23.
For E17G, the protein stability index was 4.35.
For E17Y, the protein stability index was 5.43.
Variant E17K has a protein stability index of 3.12.
For E17V, the protein stability index was 4.49.
With E17M the protein stability index was 2.08.
Work on E17D yielded a protein stability index of 3.79.
With E17H the protein stability index was 3.21.
E17R showed a protein stability index of 1.48.
With E17A the protein stability index was 2.43.
For E17F, the protein stability index was 1.89.
With L6G the protein stability index was 2.17.
L6E gave a protein stability index of 1.44.
L6F gave a protein stability index of 2.61.
With L6K the protein stability index was 3.18.
With L6P the protein stability index was 1.53.
Variant L6A has a protein stability index of 1.48.
L6C gave a protein stability index of 3.67.
For L6H, the protein stability index was 3.74.
In the case of L6W, the protein stability index is reported as 2.46.
With L6D the protein stability index was 2.3.
L6R showed a protein stability index of 1.13.
Work on L6Q yielded a protein stability index of 1.63.
In the case of L6S, the protein stability index is reported as 2.7.
L6Y showed a protein stability index of 3.4.
In the case of L6I, the protein stability index is reported as 3.28.
Work on L6T yielded a protein stability index of 2.23.
For M5S, the protein stability index was 1.68.
M5P showed a protein stability index of 1.79.
With M5G the protein stability index was 1.05.
In the case of M5K, the protein stability index is reported as 1.8.
Work on M5A yielded a protein stability index of 2.24.
In the case of M5N, the protein stability index is reported as 2.12.
Work on M5Q yielded a protein stability index of 1.76.
With M5R the protein stability index was 1.78.
In the case of M5V, the protein stability index is reported as 3.14.
For M5D, the protein stability index was 1.95.
M5C showed a protein stability index of 1.57.
In the case of M5L, the protein stability index is reported as 2.3.
In the case of M5W, the protein stability index is reported as 2.56.
M5T showed a protein stability index of 1.72.
For M5Y, the protein stability index was 2.58.
In the case of M5E, the protein stability index is reported as 1.79.
With Q23P the protein stability index was 3.09.
Work on Q23G yielded a protein stability index of 2.42.
Work on Q23D yielded a protein stability index of 1.78.
Variant Q23F has a protein stability index of 1.91.
In the case of Q23I, the protein stability index is reported as 2.18.
With Q23A the protein stability index was 3.11.
Q23N showed a protein stability index of 2.44.
For Q23T, the protein stability index was 2.41.
In the case of Q23M, the protein stability index is reported as 2.95.
Variant Q23V has a protein stability index of 2.
With Q23K the protein stability index was 3.22.
Q23W showed a protein stability index of 3.42.
Q23C gave a protein stability index of 4.36.
Q23Y showed a protein stability index of 3.54.
S24E gave a protein stability index of 3.98.
For S24C, the protein stability index was 2.6.
Work on S24Q yielded a protein stability index of 1.69.
For S24Y, the protein stability index was 2.4.
Variant S24L has a protein stability index of 3.04.
Work on S24G yielded a protein stability index of 2.41.
S24H showed a protein stability index of 2.58.
For S24A, the protein stability index was 1.88.
For S24T, the protein stability index was 2.51.
Variant S24D has a protein stability index of 1.83.
For S24W, the protein stability index was 3.86.
Work on S24I yielded a protein stability index of 5.17.
For S24R, the protein stability index was 2.69.
S24K gave a protein stability index of 2.21.
With S24N the protein stability index was 3.35.
In the case of S24F, the protein stability index is reported as 2.67.
Work on L22G yielded a protein stability index of 3.21.
Variant L22Q has a protein stability index of 2.08.
L22W gave a protein stability index of 2.86.
With L22D the protein stability index was 1.49.
In the case of L22A, the protein stability index is reported as 2.06.
L22M showed a protein stability index of 2.5.
In the case of L22S, the protein stability index is reported as 1.13.
With L22Y the protein stability index was 2.56.
L22H gave a protein stability index of 2.08.
In the case of L22E, the protein stability index is reported as 2.
Work on L22N yielded a protein stability index of 1.47.
With L22V the protein stability index was 1.7.
Variant L22K has a protein stability index of 2.14.
L22T gave a protein stability index of 1.61.
Variant L22F has a protein stability index of 2.29.
In the case of L22R, the protein stability index is reported as 1.63.
P13D gave a protein stability index of 2.95.
Work on P13Q yielded a protein stability index of 2.39.
Variant P13C has a protein stability index of 4.64.
Work on P13L yielded a protein stability index of 2.2.
In the case of P13N, the protein stability index is reported as 3.19.
With P13A the protein stability index was 5.32.
In the case of P13H, the protein stability index is reported as 2.19.
For P13F, the protein stability index was 3.35.
P13W showed a protein stability index of 3.76.
In the case of P13I, the protein stability index is reported as 2.77.
Work on P13Y yielded a protein stability index of 2.88.
P13K gave a protein stability index of 2.57.
K15E showed a protein stability index of 2.32.
K15Q gave a protein stability index of 1.47.
With K15P the protein stability index was 4.32.
Work on K15M yielded a protein stability index of 2.91.
Variant K15W has a protein stability index of 2.14.
In the case of K15N, the protein stability index is reported as 1.94.
With K15F the protein stability index was 2.52.
K15H gave a protein stability index of 3.52.
In the case of K15S, the protein stability index is reported as 2.58.
Variant K15L has a protein stability index of 2.82.
With K15Y the protein stability index was 5.17.
Variant K15V has a protein stability index of 5.16.
Work on K15D yielded a protein stability index of 2.01.
With K15T the protein stability index was 3.16.
In the case of K15A, the protein stability index is reported as 2.06.
Variant L10K has a protein stability index of 2.04.
L10G gave a protein stability index of 2.19.
L10P gave a protein stability index of 2.35.
Variant L10F has a protein stability index of 3.56.
Variant L10D has a protein stability index of 1.78.
In the case of L10E, the protein stability index is reported as 1.94.
Variant L10T has a protein stability index of 2.28.
Variant L10S has a protein stability index of 3.
Work on L10R yielded a protein stability index of 3.13.
L10N showed a protein stability index of 1.88.
L10Y showed a protein stability index of 4.15.
L10M gave a protein stability index of 2.01.
For L10H, the protein stability index was 3.55.
Variant L10A has a protein stability index of 1.81.
